Values of other authors, collected in paper PMC4860049.

Target: CHMP5 (Homo sapiens) (UniProt Q9NZZ3)
UniProt Q9NZZ3, sequence (Q9NZZ3 whole entry): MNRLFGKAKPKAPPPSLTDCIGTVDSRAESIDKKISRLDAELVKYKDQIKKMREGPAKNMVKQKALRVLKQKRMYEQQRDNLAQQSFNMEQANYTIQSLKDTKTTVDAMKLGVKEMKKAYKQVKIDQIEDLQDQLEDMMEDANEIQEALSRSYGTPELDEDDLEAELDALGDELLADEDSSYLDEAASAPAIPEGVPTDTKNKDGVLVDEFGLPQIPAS

Kd: 3 nM
Substance: LIP5 MIT2 (from UniProt Q9NP79)
